Results: PMC6429324

Assays:
[1] = test system: bevacizumab (Avastin) (humanized IgG (organism not stated)); assay: bead pull-down, HT-RPLC of residual solution; conditions: 50 ug/mL bevacizumab, Plasma samples diluted 10x in 175 mM trehalose, 42 mM NaH2PO4, 8 mM Na2HPO4, 0.4% Tween-20, pH 7.4, 0.1% peptone, room temperature, 1 h, bead comparison: beads …; for fraction of antibody not captured (% not captured): immobilization effect, 5'-aminohexyl
[2] = test system: bevacizumab (Avastin) (humanized IgG (organism not stated)); assay: bead pull-down, HT-RPLC of eluate; conditions: 10 ug/mL in human plasma, 5'-biotin, Plasma samples diluted 10x in 175 mM trehalose, 42 mM NaH2PO4, 8 mM Na2HPO4, 0.4% Tween-20, pH 7.4, 0.1% peptone, room temperature, 1 h, bead comparison: beads …

| Sequence | binding signal ([1]; streptavidin beads, 5'-biotin) [% captured] | binding signal ([2]; first use of beads) [% recovery] | binding signal ([2]; third use of beads) [% recovery] | fraction of antibody not captured (% not captured) ([1]; carboxylic acid beads) | fraction of antibody not captured (% not captured) ([1]; tosylactivated beads) |
| --- | --- | --- | --- | --- | --- |
| GCGGTTGGTGGTAGTTACGTTCGC [anti-bevacizumab DNA aptamer, 5'-biotin] | > 99.8 | 101 | 97.3 | – | – |
| GCGGTTGGTGGTAGTTACGTTCGC [anti-bevacizumab DNA aptamer, 5'-aminohexyl] | – | – | – | 85.5 | 75.8 |
